Results on 63 substances are retold here after patent US11135246B2, “Peptides and combination of peptides for use in immunotherapy against leukemias and other cancers” (Immatics Biotechnologies GmbH, priority 2017, dated 2021).

One test has as its target HLA-A*03:01 (Homo sapiens, UniProt P04439). The test is described as follows: MHC binding assay, UV-ligand exchange with β2m ELISA, HLA-A*03:01. Particulars: peptide exchange yield. The source says: (§1) Candidate peptides for T cell based therapies according to the present invention were further tested for their MHC binding capacity (affinity). The individual peptide-MHC complexes were produced by UV-ligand exchange, where a UV-sensitive peptide is cleaved upon UV-irradiation, and exchanged with the peptide of interest as analyzed. Only peptide candidates that can effectively bind and stabilize the peptide-receptive MHC molecules prevent dissociation of the MHC complexes. To determine the yield of the exchange reaction, an ELISA was performed based on the detection of the light chain (β2m) of stabilized MHC complexes. The assay was performed as generally described in Rodenko et al. (Rodenko et al., 2006).
(§2) 96 well MAXISorp plates (NUNC) were coated over night with 2 ug/ml streptavidin in PBS at room temperature, washed 4× and blocked for 1 h at 37° C. in 2% BSA containing blocking buffer. Refolded HLA-A*02:01/MLA-001 monomers served as standards, covering the range of 15-500 ng/ml. Peptide-MHC monomers of the UV-exchange reaction were diluted 100-fold in blocking buffer. Samples were incubated for 1 h at 37° C., washed four times, incubated with 2 ug/ml HRP conjugated anti-β2m for 1 h at 37° C., washed again and detected with TMB solution that is stopped with […]. Absorption was measured at 450 nm. Candidate peptides that show a high exchange yield (preferably higher than 50%, most preferred higher than 75%) are generally preferred for a generation and production of antibodies or fragments thereof, and/or T cell receptors or fragments thereof, as they show sufficient avidity to the MHC molecules and prevent dissociation of the MHC complexes.
In general terms: ELISA stands for enzyme-linked immunosorbent assay.
Consider “209 (KTLPAMLGTGK; listed as Homo sapiens) [compound 209]”, for which the Peptide exchange entry was ““++” (>20% = ++)”.

For “216 (RIKAPSRNTIQK; listed as Homo sapiens) [compound 216]”, the Peptide exchange result is listed as ““++” (>20% = ++)”. Still for that read-out and setting: then “212 (LLWHWDTTQSLK; listed as Homo sapiens) [compound 212]”, with ““+” (>10% = +)”; and “46 (RVFPSPMRI; listed as Homo sapiens) [compound 46]”, with ““++” (>20% = ++)”; and “34 (SVYSETSNMDK; listed as Homo sapiens) [compound 34]”, with ““+++” (>50 = +++)”. Same read-out and setting: the result for “51 (ASTTVLALK; listed as Homo sapiens) [compound 51]” reads ““++” (>20% = ++)”; that for “47 (SVLDLSVHK; listed as Homo sapiens) [compound 47]”, ““++” (>20% = ++)”. On the same count and under the same terms, then “40 (RSKEYIRKK; listed as Homo sapiens) [compound 40]”, with ““+” (>10% = +)”.

As for “211 (ATYNKQPMYR; listed as Homo sapiens) [compound 211]”, the Peptide exchange result was ““+++” (>50 = +++)”. On the same count and under the same terms, then “37 (KAKKPAGAAK; listed as Homo sapiens) [compound 37]”, with ““+++” (>50 = +++)”; and “217 (TTVPHVFSK; listed as Homo sapiens) [compound 217]”, with ““++” (>20% = ++)”; and “41 (SVAHLLSKY; listed as Homo sapiens) [compound 41]”, with ““++” (>20% = ++)”. In the case of “48 (RIKPPGPTAVPK; listed as Homo sapiens) [compound 48]”, the Peptide exchange entry is ““+++” (>50 = +++)”. As to “32 (KTSNIVKIK; listed as Homo sapiens) [compound 32]”, the Peptide exchange entry is ““++” (>20% = ++)”.

In the case of “219 (HSYSSPSTK; listed as Homo sapiens) [compound 219]”, the Peptide exchange entry was ““+++” (>50 = +++)”. Still for that read-out and setting: the result for “33 (SVFEGDSIVLK; listed as Homo sapiens) [compound 33]” reads ““++” (>20% = ++)”; that for “218 (RVLTGVFTK; listed as Homo sapiens) [compound 218]”, ““++” (>20% = ++)”; that for “49 (GLLEEALFY; listed as Homo sapiens) [compound 49]”, ““++” (>20% = ++)”. As for “213 (RVYNIYIRR; listed as Homo sapiens) [compound 213]”, the Peptide exchange result was ““++” (>20% = ++)”.

With “208 (KLNPQQAPLY; listed as Homo sapiens) [compound 208]”, the Peptide exchange result was ““++” (>20% = ++)”. The same measure, in the same setting: the result for “38 (KARKSAGAAK; listed as Homo sapiens) [compound 38]” reads ““+++” (>50 = +++)”; that for “30 (RTYGFVLTF; listed as Homo sapiens) [compound 30]”, ““++” (>20% = ++)”.

In the case of “52 (KAFNQSSTLTK; listed as Homo sapiens) [compound 52]”, the Peptide exchange entry is recorded as ““+++” (>50 = +++)”.

“36 (KAKAAAKPK; listed as Homo sapiens) [compound 36]”: the Peptide exchange result is on record as ““++” (>20% = ++)”.

Consider “45 (VVFPFPVNK; listed as Homo sapiens) [compound 45]”, for which the Peptide exchange entry is ““+++” (>50 = +++)”.

Another test has as its target HLA-A*01:01 (Homo sapiens, UniProt P04439, A114D/A174V/A182V/D101N/D185E/E176A/E190D/L180R/Q94H/R68K/S129P/T187R/V100A/V91M/W191G). Nature of the test: MHC binding assay, UV-ligand exchange with β2m ELISA, HLA-A*01:01. The conditions noted are these: peptide exchange yield.
Description: as §1, §2
In the case of “9 (YSHPQYSSY; listed as Homo sapiens) [compound 9]”, the Peptide exchange result is ““++” (>20% = ++)”. Still for that read-out and setting: then “190 (HVDQDLTTY; listed as Homo sapiens) [compound 190]”, with ““++” (>20% = ++)”; and “3 (YINPAKLTPY; listed as Homo sapiens) [compound 3]”, with ““++” (>20% = ++)”; and “192 (RSDPGGGGLAY; listed as Homo sapiens) [compound 192]”, with ““+++” (>50 =+++)”. As for “12 (ATDIVDSQY; listed as Homo sapiens) [compound 12]”, the Peptide exchange entry was ““+++” (>50 =+++)”. Turning to “5 (GTDVLSTRY; listed as Homo sapiens) [compound 5]”, the Peptide exchange entry is recorded as ““+++” (>50 =+++)”.

Take “8 (STDSAGSSY; listed as Homo sapiens) [compound 8]”: the Peptide exchange result is recorded as ““++++” (>75% = ++++)”. Same read-out and setting: then “189 (VTEEPQRLFY; listed as Homo sapiens) [compound 189]”, with ““++++” (>75% = ++++)”. Consider “193 (LTDSEKGNSY; listed as Homo sapiens) [compound 193]”, for which the Peptide exchange result is ““+++” (>50 =+++)”.

Turning to “11 (AAADHHSLY; listed as Homo sapiens) [compound 11]”, the Peptide exchange result is recorded as ““+++” (>50 =+++)”. The same measure, in the same setting: the result for “15 (SVADIRNAY; listed as Homo sapiens) [compound 15]” reads ““++” (>20% = ++)”; that for “7 (FMDSESFYY; listed as Homo sapiens) [compound 7]”, ““+” (>10% = +)”; that for “195 (YSDKEFAGSY; listed as Homo sapiens) [compound 195]”, ““++++” (>75% = ++++)”. As for “194 (YTDKKSIIY; listed as Homo sapiens) [compound 194]”, the Peptide exchange result is ““+++” (>50 =+++)”.

“196 (FTDIDGQVY; listed as Homo sapiens) [compound 196]”: the Peptide exchange result is recorded as ““+++” (>50 =+++)”.

Turning to “6 (VTEGVAQTSFY; listed as Homo sapiens) [compound 6]”, the Peptide exchange result is given as ““++++” (>75% = ++++)”. As for “14 (TFDLTVVSY; listed as Homo sapiens) [compound 14]”, the Peptide exchange result was ““++” (>20% = ++)”. On to “1 (LTEGHSGNYY; listed as Homo sapiens) [compound 1]”, for which the Peptide exchange result is ““++++” (>75% = ++++)”.

Consider “188 (YVDAGTPMY; listed as Homo sapiens) [compound 188]”, for which the Peptide exchange entry was ““+++” (>50 =+++)”.

On to “16 (WIGDKSFEY; listed as Homo sapiens) [compound 16]”, for which the Peptide exchange result was ““++” (>20% = ++)”. Still for that read-out and setting: the result for “13 (ITDIHIKY; listed as Homo sapiens) [compound 13]” reads ““++++” (>75% = ++++)”; that for “4 (ALDQNKMHY; listed as Homo sapiens) [compound 4]”, ““+++” (>50 =+++)”; that for “191 (ISEAGKDLLY; listed as Homo sapiens) [compound 191]”, ““+++” (>50 =+++)”. Same read-out and setting: then “10 (YSDIGHLL; listed as Homo sapiens) [compound 10]”, with ““++” (>20% = ++)”.

The target of the next test is HLA-A*02:01 (Homo sapiens, UniProt P04439, D140Y/D185E/D98H/E176V/E277Q/G131W/G231S/I119V/I121R/I166T/I218V/L300P/L318F/N151K/N90K/P208A/P217A/Q86G/Q94H/R138H/R169H/T345S). The test is described as follows: MHC binding assay, UV-ligand exchange with β2m ELISA, HLA-A*02:01. The conditions noted are these: peptide exchange yield.
Description: as §1, §2
As to “18 (YLLPSVVLL; listed as Homo sapiens) [compound 18]”, the Peptide exchange entry is recorded as ““++++” (>75% = ++++)”. In the case of “20 (FSLEDLVRI; listed as Homo sapiens) [compound 20]”, the Peptide exchange entry was ““++” (>20% = ++)”. In the case of “27 (RLIAKEMNI; listed as Homo sapiens) [compound 27]”, the Peptide exchange entry is ““++++” (>75% = ++++)”. The same measure, in the same setting: the result for “206 (SLMDLQERL; listed as Homo sapiens) [compound 206]” reads ““+++” (>50 = +++)”; that for “21 (FLFDKLLLI; listed as Homo sapiens) [compound 21]”, ““++++” (>75% = ++++)”.

Regarding “26 (SLYVQQLKI; listed as Homo sapiens) [compound 26]”, the Peptide exchange result is listed as ““++++” (>75% = ++++)”.

As for “198 (KLLGYDVHV; listed as Homo sapiens) [compound 198]”, the Peptide exchange result is recorded as ““+++” (>50 = +++)”.

On to “23 (FAFSGVLRA; listed as Homo sapiens) [compound 23]”, for which the Peptide exchange result is recorded as ““++” (>20% = ++)”. On the same count and under the same terms, the result for “197 (SLADVHIEV; listed as Homo sapiens) [compound 197]” reads ““++++” (>75% = ++++)”; that for “201 (ILAAVETRL; listed as Homo sapiens) [compound 201]”, ““+++” (>50 = +++)”; that for “17 (KAYNRVIFV; listed as Homo sapiens) [compound 17]”, ““+++” (>50 = +++)”. On the same count and under the same terms, then “25 (YLNEKSLQL; listed as Homo sapiens) [compound 25]”, with ““++++” (>75% = ++++)”. On to “205 (FLINTNSEL; listed as Homo sapiens) [compound 205]”, for which the Peptide exchange result is reported as ““++++” (>75% = ++++)”. The same measure, in the same setting: then “199 (AMPDSPAEV; listed as Homo sapiens) [compound 199]”, with ““++++” (>75% = ++++)”.
